Laboratory results reported in patent publication US20220106400A1 (Bristol-Myers Squibb, published 2022).
Where a chain is given by its changes, count along the chain named.

How the values were obtained:
human GITR = biological target: T1, human GITR (human, UniProt Q9Y5U5 26-241); assay: cell-based or functional assay
T1 sequence (looked up): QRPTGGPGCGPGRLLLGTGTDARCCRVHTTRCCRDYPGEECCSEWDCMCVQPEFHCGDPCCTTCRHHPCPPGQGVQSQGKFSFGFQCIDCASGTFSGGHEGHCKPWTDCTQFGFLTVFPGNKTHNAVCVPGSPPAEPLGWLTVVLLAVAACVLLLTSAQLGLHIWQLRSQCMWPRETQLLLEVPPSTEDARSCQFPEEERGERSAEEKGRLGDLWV

[1] = biological target: T2, hCD32a-H131 (FcgRIIa-H131) (human, UniProt P12318 36-218); assay: SPR, FcgR analyte titration on protein A captured dAb-Fc
T2 construct: not shown: C-terminal his-tag
T2 sequence (looked up): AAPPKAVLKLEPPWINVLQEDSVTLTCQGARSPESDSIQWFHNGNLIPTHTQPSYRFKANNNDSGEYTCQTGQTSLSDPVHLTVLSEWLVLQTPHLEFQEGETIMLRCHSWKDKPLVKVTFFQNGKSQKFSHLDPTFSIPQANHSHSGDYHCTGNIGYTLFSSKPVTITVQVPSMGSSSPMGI
Procedure: (§1) A second SPR assay for testing the interaction between antibodies or dAb-Fc proteins with FcgR proteins is a protein A capture method. These experiments are also performed on either a Biacore™ T100 or Biacore™ T200 instrument (GE Healthcare) at 25° C. For these studies, protein A is immobilized on flow cells 1-4 of a CM5 sensor chip using standard ethyl (dimethylaminopropyl) carbodiimide (EDC)/N-hydroxysuccinimide (NHS) chemistry, with ethanolamine blocking, in a running buffer of 10 mM HEPES pH 7.4, 150 mM NaCl, 3 mM EDTA, 0.05% surfactant p20, to a density of ˜3000 RU.

[2] = biological target: T3, hCD32a-R131 (FcgRIIa-R131) (human, UniProt P12318 36-218); assay: as above
T3 construct: not shown: C-terminal his-tag
T3 sequence (looked up): T2 sequence (looked up) with H132R
Procedure: as §1

hCD32b (FcgRIIb) = biological target: T4, hCD32b (FcgRIIb) (human, UniProt P31994 46-217); assay: as above
T4 construct: not shown: C-terminal his-tag
T4 sequence (looked up): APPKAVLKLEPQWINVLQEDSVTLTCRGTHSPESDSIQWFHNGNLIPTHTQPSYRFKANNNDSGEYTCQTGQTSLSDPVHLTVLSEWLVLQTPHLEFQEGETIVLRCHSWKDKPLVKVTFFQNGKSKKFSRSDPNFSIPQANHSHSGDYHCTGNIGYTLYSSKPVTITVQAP
Procedure: as §1

[3] = biological target: T5, hCD16a-V158 (FcgRIIIa-V158) (human, UniProt P08637 17-208); assay: as above
T5 construct: not shown: C-terminal his-tag
Procedure: as §1

[4] = biological target: T6, hCD16b-NA2 (FcgRIIIb-NA2) (human, UniProt O75015 17-200, limits assumed); assay: as above
T6 construct: not shown: C-terminal his-tag
Procedure: as §1

hCD40-Fc = biological target: T7, hCD40-Fc (human, UniProt P25942 21-193); assay: SPR, immobilized hCD40-Fc, dAb-Fc analyte (avidity)
T7 construct: not shown: Fc part of hCD40-Fc, not described
T7 sequence (P25942 21-193): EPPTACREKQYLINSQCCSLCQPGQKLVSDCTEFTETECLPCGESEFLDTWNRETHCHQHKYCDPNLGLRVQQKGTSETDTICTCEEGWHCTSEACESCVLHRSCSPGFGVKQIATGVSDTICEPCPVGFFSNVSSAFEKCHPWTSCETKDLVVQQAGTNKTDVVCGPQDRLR

T5 sequence (P08637 17-208 F176V limits assumed): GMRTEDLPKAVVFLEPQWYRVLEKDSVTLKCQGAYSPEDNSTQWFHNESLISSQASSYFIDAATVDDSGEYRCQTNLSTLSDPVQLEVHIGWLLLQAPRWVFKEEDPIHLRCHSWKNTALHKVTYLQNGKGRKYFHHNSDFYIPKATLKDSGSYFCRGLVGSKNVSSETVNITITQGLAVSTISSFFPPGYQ
T6 sequence (O75015 17-200 N65S limits assumed): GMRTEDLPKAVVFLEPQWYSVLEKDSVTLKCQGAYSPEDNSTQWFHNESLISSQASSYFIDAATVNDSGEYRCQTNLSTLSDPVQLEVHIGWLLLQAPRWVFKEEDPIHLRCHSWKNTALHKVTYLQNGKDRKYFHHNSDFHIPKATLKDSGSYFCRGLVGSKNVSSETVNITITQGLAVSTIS

B1: GITR.6.G2 (antibody, human IgG2, kappa)
heavy: QVQLVESGGGVVQPGRSLRLSCAASGFTFSSYGMHWVRQAPGKGLEWVAVIWYEGSNKYYADSVKGRFTISRDNSKNTLYLQMNSLRAEDTAVYYCARGGSMVRGDYYYGMDVWGQGTTVTVSSASTKGPSVFPLAPCSRSTSESTAALGCLVKDYFPEPVTVSWNSGALTSGVHTFPAVLQSSGLYSLSSVVTVPSSNFGTQTYTCNVDHKPSNTKVDKTVERKCCVECPPCPAPPVAGPSVFLFPPKPKDTLMISRTPEVTCVVVDVSHEDPEVQFNWYVDGVEVHNAKTKPREEQFNSTFRVVSVLTVVHQDWLNGKEYKCKVSNKGLPAPIEKTISKTKGQPREPQVYTLPPSREEMTKNQVSLTCLVKGFYPSDIAVEWESNGQPENNYKTTPPMLDSDGSFFLYSKLTVDKSRWQQGNVFSCSVMHEALHNHYTQKSLSLSPGK
light: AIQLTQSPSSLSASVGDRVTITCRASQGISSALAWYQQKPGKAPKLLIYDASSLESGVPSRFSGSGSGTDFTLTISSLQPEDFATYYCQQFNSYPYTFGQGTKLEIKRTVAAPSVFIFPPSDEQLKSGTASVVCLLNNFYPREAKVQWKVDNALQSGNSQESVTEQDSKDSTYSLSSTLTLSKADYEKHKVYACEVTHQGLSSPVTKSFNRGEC
Human GITR
  NFKB signaling in TCR activated CD4+ T cells, EC50: 0.0128 µM
  NFKB signaling in TCR activated CD4+ T cells, Emax: 69%
  NFKB signaling in TCR activated CD8+ T cells, EC50: 0.009 µM
  NFKB signaling in TCR activated CD8+ T cells, Emax: 85%

B2: 3h56-269-IgG1.1f (Fc fusion)
chain: EVQLLESGGGLVQPGGSLRLSCAASGFTFRDYEMWWVRQAPGKGLERVSAINPQGTRTYYADSVKGRFTISRDNSKNTLYLQMNSLRAEDTAVYYCAKLPFRFSDRGQGTLVTVSSASTEPKSCDKTHTCPPCPAPEAEGAPSVFLFPPKPKDTLMISRTPEVTCVVVDVSHEDPEVKFNWYVDGVEVHNAKTKPREEQYNSTYRVVSVLTVLHQDWLNGKEYKCKVSNKALPSSIEKTISKAKGQPREPQVYTLPPSREEMTKNQVSLTCLVKGFYPSDIAVEWESNGQPENNYKTTPPVLDSDGSFFLYSKLTVDKSRWQQGNVFSCSVMHEALHNHYTQKSLSLSPGK
notes: anti-CD40 dAb-Fc
[1]
  Kd: > 5 µM
[2]
  Kd: > 5 µM
hCD32b (FcgRIIb)
  Kd: > 5 µM
[3]
  Kd: > 5 µM
[4]
  Kd: > 5 µM

B3: 3h56-269-IgG1.3f (Fc fusion)
chain: B2 chain with S234A, S235P
notes: dAb-Fc fusion protein
hCD40-Fc
  KDapparent: < 1 nM

B4: 3h56-269-IgG1.1f (Fc fusion)
chain: B2 chain
notes: dAb-Fc fusion protein
hCD40-Fc
  KDapparent: < 1 nM
